Assay: label from the status in PepcDB records

Sequence	protein production
SEVIRSQKRTVSNDVVSTPTLPLYLTAPHMEVRLEEFELFAIDRLRVLKGVSDGLARARNPNEMDDLVETLWKEHMRLSDVSEMINKDIISHFVLRLVYCRSDELKKWFLSMETAPFRHRFRLKKIEEQRAIVGEFGLPYKAVIGAELESLKERLGLVARSHGQISSDVENIYYKVPFEEVPDLVASRRVLLQKGFAFVAGTQLVSLVVTQFRSHLSKALILTNRKWTTTIREREKDRLTPIVEALSTSYLGPDYSQSNEYADISLKDIDQVSKSSFPLCMRHLFEKLREDHHLKHGGRMQLGLFLKGVGLKLDDALAFWREEFTKKVGSERFDKEYAYAIRHNYGKEGKRTDYTPYACSKIITSAPGAGDHHGCPYRHFSEDNLKAALSRMGLSSRGMEDVMDKVRNRHYQLACTLTFEAVYGTSCDTGINHPNQYFEESQKILKSKTPAAPV	not failed
MLSAVRRANLYLNLFGFSKVPLIWLCHPKIIAIDSKHVEVRIPLRRRTKNHLNSMYFGALAVGADVAGGFLAMSKAQEKGEAISLAFKGVKAEFLKRPEADVHFVCNDGHVIDEMLDHTIATGERVNRDVKIIALCPSLHGQEPMAEFALTLSIKKAAQHTKLEHHHHHH	not failed
MLRLDTRFLPGFPEALSRHGPLLEEARRRLLAKRGEPGSMLGWMDLPEDTETLREVRRYREANPWVEDFVLIGIGGSALGPKALEAAFNESGVRFHYLDHVEPEPILRLLRTLDPRKTLVNAVSKSGSTAETLAGLAVFLKWLKAHLGEDWRRHLVVTTDPKEGPLRAFAEREGLKAFAIPKEVGGRFSALSPVGLLPLAFAGADLDALLMGARKANETALAPLEESLPLKTALLLHLHRHLPVHVFMVYSERLSHLPSWFVQLHDESLGKVDRQGQRVGTTAVPALGPKDQHAQVQLFREGPLDKLLALVIPEAPLEDVEIPEVEGLEAASYLFGKTLFQLLKAEAEATYEALAEAGQRVYALFLPEVSPYAVGWLMQHLMWQTAFLGELWEVNAFDQPGVELGKVLTRKRLAG	not failed
MLALPTTFAKSPIDNEASIEETTPKWSVNSPQGNFTTADIDVRSGTWMNVDLNPDGKTIIFDLLGDIYTMPASGGEATPLMTDIAWQMQPRFSPDGKYIAFTSDEDGGDNLWIMKADGSEAKAVTTETFRLLNSPAWSPDGNYIVGRKHYTGTRSLGAGEVWMYHKSGGNGVMLTKRPNEQKDLGEPAFSHDGKYVYFSQDATPGKSFHYSKDSEKGIYKIKRLELETGEIKVVVSGKGGAIRPTLSPDGKYLAFISRDDFQSNLYLYNLKNGEQSKVYDGLDRDMQETWAIHGVYPTMAWTPDSEGLVFWSGGKINKLSLDSKKAKVIDFHVKTTKKIQTAVRFPQDLDQKSFDTKMLRDVKVSPNGKLAVYESMGHLYTKSLPKGKPKRLTKQKSQFELNPSFSRDGKKIVYVSWDDKNLGQVRVVSSRGGKGKTITREPGKYVEPSFSPDGKAVVYRKVTGGFITDPTWGLNPGVYAVSVKGGKAKLVTEEGVQPHFGARNDRIYVTRDGETPHISRIDIDGQHDTKLYQGKFASEYRVSPDGNYLAFAERFKVFVTPFVERGDVIDIGPKAENLPVEQLSMRAGEGINWNGKSNELYWSLGADLYQASIKGLFDITAKTTDENDDGSEPETSASTVVNDINVINLSYKQKVDIPSGHVAFVGGKVITMEGEQVIDNGVVLVEGNKIKAVGTKGQVNIPSDATIIDITGKTVMPGLIDAHAHGPQGSNEIIPQQNWKNYAGLALGVTTIHDPSNDTTEFFAASEMQKAGKIVAARLFSTGTILYGATIPGYTSHVDSLDDAKFHVERLKAAGAFSVKSYNQPRRNQRQQFIQAARELEMMVVPEGGSLLQHNLTMVVDGHTTLEHSISTAKIYADIKQLWSQSDMAYTPTMGVAYGGISGENYWYDTTNVWEHPRLSQYVPSEFLDPRSMRRPKAPLHHYNHFNVAKVAKEMQDLGVVVNAGGHGQREGLAMHWEMWMMAQGGMSPLQAIRTATISPAKSLGLDKDLGSLTVGKLADMIVIDGDITQDIRLSDKVTHTMINGRLYNADTMNEIGNYDNKREKFYFENK	failed
MSRRTVSLTVLALVLALLILVAPDVLLVIFAGVLFGVFLSAGGGLVQRVTGLQRGAGIALFIVLVLLALTGAFLAFAPAMFEQADALARQLPPAFEDLRDRISAYSWGPTLLSRLAPSRLLSSDGGFASTAVSATFGALGNVVIILFIGLYTAVDPGLYRRGLRALLAPPLRPRGDEVLAIADGTLRGWLGGQIISMTVVGVLTWLGLWLIGIPLAFILGLIAALLTFIPNIGPVLSAVPALLLALPEGAEQVGLVLAVFLTVQTFESYLVTPLIQKERVALPPALIISAQLLMGVLFGLMGLLLATPLAALALALVREVYVHDYLEEGPAKAQGPDRAD	failed
MTLTRDSLLTLEAYAKVRRQEHARVIAHKKRRAVSIGNHLRLLFEDETTIRYQIHEMLHIEKIFDEDGIQAELDAYLPLVPDGSNLKATLQIEYENETQRRAALARLVGIEDRVFLRVDDEAPVYAIADEDLERDTAEKTSAVHFLRFELGDAMKAKLKAGAPLSIGCDHPHYPIQAARIDPDVAASLAGDLD	not failed
GPLGSAMRELLLSDEYAEQKRAVNRFMLLLSTLYSLDAQAFAEATESLHGRTRVYFAADEQTLLKNGNQTKPKHVPGTPYWVITNTNTGRKCSMIEHIMQSMQFPAELIEKVCGTI	not failed
MPDPIFSVSDARRSGTRLIGFGIGAIVVILATAATFLLLTLPDANAFNARVERVFIENDLTTQAEIRLLEILAQSGTAFADTLSSYRMVIFVLLVFASAMMIAALAFLVMLVLLNRRMAQIERTGIQVTSLLISREENTVYLNNMEFQLTPAAIETLAVLAEARMDDDVLSGAQIEAVISGRDASDCEEAAGATRIKRLRDTLGNQMISALLVKNIAKRGYMLAIEKSVIQMV	failed
MSLKITGVNIYLLKSGRLHPVLVEISTDEGITGAGEAGIAYGVGGTAAAGMIKDLSERFLIGKDPSRIEELWSTMYDHSFWAKNGGAIIFAGISAIEQALWDIKGKCLGVPVYELFGGKIRDRVRAYANGWYGAADTPDEFARAVERPLKEGYGALKFYPLAQRVGSALQHVTRRSMSAEAIELAYRRVKAVRDAAGPEIELMVDLSGGLTTDETIRFCRKIGELDICFVEEPCDPFDNGALKVISEQIPLPIAVGERVYTRFGFRKIFELQACGIIQPDIGTAGGLMETKKICAMAEAYNMRVAPHVCGSSLIETATLQLEANITNFMIHEHYPAFKADDGYVEVLENPPSISSGYFEMPNGPGLGAVLIKRNIEPYLWASCTEGHHHHHH	not failed
MPKKVVPEEARRRRRPTRQGAVLSEGLIVRTALRMLREHGTGGLTARRLGAALGADPSTLYRYFAGMDDLARAVGNELMGQALDGWTAQGDWRADLRSLGLALHSSYLAHPQAAVLTASRVSGRPREIAVDEAILGLLRGAGLTDRAAVRFYHAFIDLALAFAALDAGSLALPEEARRSDEDMWGTTYARLPAETHPNIAATAERLAARMPHSAYPVVLDTLLDGIAAELTGTAPEM	not failed
MTSFDWFFVAAYLILSFGIALYFYQRAGEDTSEFFLSGRAMPWWLAGTSMVATTFAVDTPLLVTEIVAQNGIAGNWLWWNAAIGGMLTVFFFARLWRRSGVMTDVEFVEFRYSGRVAAWLRGLKALFFGLLLNILIIGWVSLAMETVIDRLFPDLTLFGQAAFSVLGREMSAALVVTGGLILLVSVYALLSGLWGVMVTDLFQFVVAMGGTIALAVLVLDMPEIGGVAGLREQLPDETFNLLPTIGGAAEGAATFSLSALAFAAYAGVQWWASWYPGAEPGGGGYIAQRMMSAKDEPNALFATLWYTIAHFCLRPWPWIIVALAALVLYPDLDEPRAGFVLVMKDVLPPGLLGLLFASFLAAFMSTVSTQLNWGVSYLVNDFWGRFVRPDADEAHYVRVSRVLTFGVALLSLVVTLFLDTIAEAWGLLLSASAGLGLVLILRWYWWRVNAWSEMAATLAPIGLTVAALVLNVFGVQVPGLQADFPLNLYSVVGFTTVVWLAATFLTRPTDAETLDAFYRTVHPGGPGWTPVAERHPDVTPDSGLGRLALDWLVGVVLVYSTLFGTGYLILGWTLWGAGCIAVALTAAAYLWRDLQRDEISLIEMKEEKDATEER	failed
MYPYIKLIATLFRAKNSPQMNLDEKSVLNCRAGLTDIDVFVELNNARHLTYMEFGRWDFAQRTGLLSLMRKNKWAFAVGGASVRYRRRIAFWKKFTVTTQVICHDGRWFYFLQETHIKDKVCSSALIKAAFTSKQGLVPATEVLAAYGKTTPNFDVPDWVNAWIDAESQRPWPLEHHHHHH	not failed
MAVYNPKPEFFRQAVLSVLGQTMPVLELVLVNDGGSDEFKSVLPDDDRIRVFTKPNEGVAATRNFAIKQCRGEYIAFLDQDDYWYSDKLAEQMAMISVKGEACMVISPVDIVDNQGVPIIKQNRKKVTNRYFRKIAHPDIRFPLADGNFIYSSTPLIHRRVFECVGLFDSFTQPHDDWDMYLRIALAGISVHCYRERALSVWRMHDSNESQKRMAMMLSKCEVEWKILQGGVPEPVAKIMHSNLALDQIVMDNLWYNEREFARFRETVRRDLPGLMRCAVNSGRHDRYVTGYRKRAASAIIKSARRYLLSLFSRQR	failed
HPEKCSECSYSCSSKAALRIHERIHCTDRPFKCNYCSFDTKQPSNLSKHMKKFHGDM	not failed
MHLNTLAGRSYNDLMQYPVFPWILADYDSEEVDLTNPKTFRNLAKPMGAQTDERLAQYKKRYKDWEDPNGETPAYHYGTHYSSAMIVASYLVRMEPFTQIFLRLQGGHFDLADRMFHSVREAWYSASKHNMADVKELIPEFFYLPEFLFNSNNFDLGCKQNGTKLGDVILPPWAKGDPREFIRVHREALECDYVSAHLHEWIDLIFGYKQQGPAAVEAVNVFHHLFYEGQVDIYNINDPLKETATIGFINNFGQIPKQLFKKPHPPKRVRSRLNGDNAGISVLPGSTSDKIFFHHLDNLRPSLTPVKELKEPVGQIVCTDKGILAVEQNKVLIPPTWNKTFAWGYADLSCRLGTYESDKAMTVYECLSEWGQILCAICPNPKLVITGGTSTVVCVWEMGTSKEKAKTVTLKQALLGHTDTVTCATASLAYHIIVSGSRDRTCIIWDLNKLSFLTQLRGHRAPVSALCINELTGDIVSCAGTYIHVWSINGNPIVSVNTFTGRSQQIICCCMSEMNEWDTQNVIVTGHSDGVVRFWRMEFLQVPETPAPEPAEVLEMQGPLSHPHPNPIEVRNYSRLKPGYRWERQLVFRSKPTMHTAFDRKDNAHPAEVTALGISKDHSRILVGDSRGRVFSWSVSDQPGRSAADHWVKDEGGDSCSGCSVRFSLTERRHHCRNCGQLFCQKCSRFQSEIKRLKISSPVRVCQNCYYNLQHERGSEDGPRNC	failed
MIRQRSVIAKRAYIDEGVYIGNVVRIGEESMIHRRSRIGSGARIGGSVCIGVYCRIDGSVRIGQHADIGEWVNIDGHARIGNFARIGEWSRIGGRANIAAHVVLEKQSIIHSETCIQDASKLEHHHHHH	failed
CTFKSVADEWVKTKTKLKPKTVQGNWRKLELYAFPKFGEIPVKSLTPIIVQEAFRPIARRGKLETVKRTIQLVNEIMRFAINSGLIQHNVLSGVG	failed
MRRRDPSRKMILRMSHVVRRLRPDGIVELRPRDVRVERPEWYLGAYTTFLVSGALFISTAVPAQLVAITFLGCLLGEVCFGLRALVALRRPLAEVEVLAPMRRVR	failed
MIIVYTTFPDWESAEKVVKTLLKERLIACANLREHRAFYWWEGKIEEDKEVGAILKTREDLWEELKERIKELHPYDVPAIIRIDVDDVNEDYLKWLIEETKK	not failed
MIEVIILAIALSMDAFAVSIGLGATKQQSKVAPLGIIVALYFGLFQGIMPIIGYLGGKGVLSWAESYTPWIAFLLLFLIGVKMIFDSFSEGIEEDISKITHRVLLILAIATSIDAMAAGFSLTLLPVNPLIACLIIASVTFIFSWLGVLVGTKGGTWLENKAEFVGGITLIVMAIKIIITS	failed
